# Laboratory results taken from US20140143908A1.
# Positions count from the first letter of the chain named. Numbers in names are those of the source.
# B1: Oryza sativa trehalose-6-phosphate phosphatase single modification H244D (OsT6PP-H244D) (protein)
# chain: MDLSNSSPVITDPVAISQQLLGGLPSNLMQFSVMPGGYSSSGMNVGVSRLKIEEVLVNGLLDAMKSSSPRRRLNVAFGEDNSSEEEDPAYSAWMAKCPSALASFKQIVASAQGKKIAVFLDYDGTLSPIVDDPDKAVMSPVMRAAVRNVAKYFPTAIVSGRSRNKVFEFVKLKELYYAGSHGMDIMAPSANHEHSAEKSKQANLFQPAHDFLPMIDEVTKSLLQVVSGIEGATVENNKFCVSVDYRNVAEKDWKLVARLVNEVLEAFPRLKVTNGRMVLEVRPVIDWDKGKAVEFLLQSLGLNDSENVIPIYIGDDRTDEDAFKVLRQRNCGYGILVSQVPKETEAFYSLRDPSEVMEFLNFLVRWKKHSV
# B2: OsT6PP-S242E (protein)
# chain: B1 chain with S242E, D244H
# B3: OsT6PP-H244S (protein)
# chain: B1 chain with D244S
# Tests used:
# [1] = target: Oryza sativa trehalose-6-phosphate phosphatase, wild type (OsT6PP-WT) (Oryza sativa) (UniProt Q75WV3); experiment: cell-based or functional assay
# [2] = target: T1, Oryza sativa trehalose-6-phosphate phosphatase, wild type (OsT6PP-WT)
# T1 chain: B1 chain with D244H
# [3] = target: T2, N-terminal truncated OsT6PP-D56NT
# T2 chain: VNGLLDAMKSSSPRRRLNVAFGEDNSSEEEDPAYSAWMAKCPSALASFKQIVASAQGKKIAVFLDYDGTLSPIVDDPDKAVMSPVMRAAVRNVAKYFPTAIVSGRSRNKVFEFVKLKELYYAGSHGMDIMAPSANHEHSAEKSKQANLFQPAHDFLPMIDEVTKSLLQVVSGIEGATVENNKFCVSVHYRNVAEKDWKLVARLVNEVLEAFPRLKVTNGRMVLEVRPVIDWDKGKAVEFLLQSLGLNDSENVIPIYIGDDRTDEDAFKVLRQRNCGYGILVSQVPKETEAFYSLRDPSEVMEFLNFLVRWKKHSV
Binder,"Trehalose formed (µM), 20 min, mixture of OsT6PP-WT (1 µg/ml) and OsT6PP-H244D (10 µg/ml); WT alone 25.3, H244D alone 1.1 [1] [µM]","Trehalose formed (µM), 40 min, mixture of OsT6PP-WT (1 µg/ml) and OsT6PP-H244D (10 µg/ml); WT alone 33.6, H244D alone 4.6 [1] [µM]","Trehalose formed (µM), 60 min, mixture of OsT6PP-WT (1 µg/ml) and OsT6PP-H244D (10 µg/ml); WT alone 36.8, H244D alone 5.9 [1] [µM]","T6PP activity, trehalose formed (µM), 20 min, OsT6PP-WT (1 µg/ml) with 0.5 µg/mL OsT6PP-H244D; WT alone 28.7 [2] [µM]","T6PP activity, trehalose formed (µM), 20 min, OsT6PP-WT (1 µg/ml) with 1 µg/mL OsT6PP-H244D; WT alone 28.7 [2] [µM]","T6PP activity, trehalose formed (µM), 20 min, OsT6PP-WT (1 µg/ml) with 2 µg/mL OsT6PP-H244D; WT alone 28.7 [2] [µM]","T6PP activity, trehalose formed (µM), 20 min, OsT6PP-WT (1 µg/ml) with 5 µg/mL OsT6PP-H244D; WT alone 28.7 [2] [µM]","T6PP activity, trehalose formed (µM), 20 min, OsT6PP-WT (1 µg/ml) with 10 µg/mL OsT6PP-H244D; WT alone 28.7, H244D alone 2.2 [2] [µM]","T6PP activity, trehalose formed (µM), 20 min, OsT6PP-WT (1 µg/ml) with 20 µg/mL OsT6PP-H244D; WT alone 28.7, H244D alone 6.2 [2] [µM]",fold increase of T6PP activity [2],trehalose 6-phosphate phosphatase activity (in vitro) [2],fold increase of T6PP activity [3]
B1,89.5,155,220,34.9,40.1,52.3,71.7,77.7,101,An approximately 3-fold increased T6PP activity was observed when OsT6PP-WT was assayed in presence of OsT6PP-H244D,"Increased trehalose 6-phosphate phosphatase activity (in vitro) of OsT6PP-WT is observed in the presence of its catalytically inefficient variants, including OsT6PP-H244D, OsT6PP-H244S and OsT6PP-S242E",a 1.7 fold increase in T6PP activity was observed when N-terminal truncated OsT6PP-D56NT was mixed with OsT6PP-H244D
B2,,,,,,,,,,,"Increased trehalose 6-phosphate phosphatase activity (in vitro) of OsT6PP-WT is observed in the presence of its catalytically inefficient variants, including OsT6PP-H244D, OsT6PP-H244S and OsT6PP-S242E",
B3,,,,,,,,,,,"Increased trehalose 6-phosphate phosphatase activity (in vitro) of OsT6PP-WT is observed in the presence of its catalytically inefficient variants, including OsT6PP-H244D, OsT6PP-H244S and OsT6PP-S242E",
